Sequences and labels used below:
B1: SEQ ID NO 744 (designed binder)
chain: MGSWVEFSGRLIAIDNRLWALGGSEAELAAFEKEIAAFESELQAYKGKGNPEVEYLRMWAAEIRYILQAYRHN
B2: SEQ ID NO 746 (designed binder)
chain: B1 chain with V5H, S8M, G9E, N16G, M58F, W59V, E62F, Y65D, I66V
B3: SEQ ID NO 745 (designed binder)
chain: B1 chain with S8H, G9H, I12F, N16E, W59V
B4: SEQ ID NO 743 (designed binder)
chain: B1 chain with V5M, S8F, G9D, I12V, N16E, Y65F, I66L
B5: SEQ ID NO 742 (designed binder)
chain: B1 chain with V5H, S8I, G9T, I12E, N16Q, M58F, Y65F
B6: SEQ ID NO 777 (designed binder)
chain: MGSWTEFWHRLEAIDSRLWALGGSEAELAAFEKEIAAFESELQAYKGKGNPEVESLREHAAHIRVWLQAYRHN
B7: SEQ ID NO 758 (designed binder)
chain: B6 chain with T5L, W8Y, E12N, E58D, V65E
B8: SEQ ID NO 749 (designed binder)
chain: B6 chain with T5F, W8Y, H9D, E12N, S16A, S55N, E58V, H62A, V65E
B9: SEQ ID NO 767 (designed binder)
chain: B6 chain with T5I, W8Y, H9W, S16Q, S55D, E58V, H62A, V65W
B10: SEQ ID NO 766 (designed binder)
chain: B6 chain with T5F, W8Y, H9E, E12N, S55K, E58A, H62S, V65T
B11: SEQ ID NO 747 (designed binder)
chain: MGSWKEFIQRLDAIHYRLWALGGSEAELAAFEKEIAAFESELQAYKGKGNPEVEYLRFVAAFIRFELQAYRHN
B12: SEQ ID NO 748 (designed binder)
chain: B11 chain with K5S, Q9F, Y16S, W19Q, V59I, F62E, F65L, E66K
B13: SEQ ID NO 741 (designed binder)
chain: MGSWHEFYDRLDAIYFRLWALGGSEAELAAFEKEIAAFESELQAYKGKGNPEVELLRLLAAEIRKELQAYRHN
B14: SEQ ID NO: 616 (designed binder)
chain: MGSWWEFKYRLDAICFRLAALGGSEAELASFEDEIAYFEEDLQGYKGKGNPEVEALDYEALAIWDELAAYRHN
notes: D domain, on phage
B15: SEQ ID NO: 604 (designed binder)
chain: MGSWIEFMDRLWAIDQRLWALGGSEAELAWFEEEIAWFEEELQVYKGKGNPEVEALEWEATAISEELWAYRHN
notes: D domain, on phage
B16: SEQ ID NO: 601 (designed binder)
chain: MGSWFEFGDRLEAIDERLYALGGSEAELAQFEWWIAEFEHHLQDYKGKGNPEVEALEYEADAIWGELHAYRHN
notes: D domain, on phage
B17: SEQ ID NO: 606 (designed binder)
chain: MGSWWEFEIRLDAIDERLWALGGSEAELAWFEQSIAFFENDLQVYKGKGNPEVEALRWEANAIIEELFAYRHN
notes: D domain, on phage
B18: SEQ ID NO: 612 (designed binder)
chain: MGSWYEFFDRLDAIDERLWALGGSEAELAWFEAEIAEFEMELQGYKGKGNPEVEALDVEAHAIEMELFAYRHN
notes: D domain, on phage
B19: SEQ ID NO: 615 (designed binder)
chain: MGSWEEFHMRLIAIDERLWALGGSEAELAGFEESIAYFESQLQDYKGKGNPEVEALDYEAHAIWRELYAYRHN
notes: D domain, on phage
B20: SEQ ID NO: 619 (designed binder)
chain: MGSWIEFWNRLEAIEERLYALGGSEAELAYFEDEIAEFEIYLQQYKGKGNPEVEALKHEAEAINKELMAYRHN
notes: D domain, on phage
B21: SEQ ID NO: 622 (designed binder)
chain: MGSWLEFETRLHAIDERLWALGGSEAELAEFEEHIAWFEEDLQFYKGKGNPEVEALDFEADAIGWELWAYRHN
notes: D domain, on phage
B22: SEQ ID NO: 614 (designed binder)
chain: MGSWVEFSNRLDAIWERLQALGGSEAELAYFEWEIAEFEWELQSYKGKGNPEVEALNAEADAIEWELEAYRHN
notes: D domain, on phage
B23: SEQ ID NO: 618 (designed binder)
chain: MGSWWEFNARLDAIEDRLMALGGSEAELAYFEDIIASFENILQQYKGKGNPEVEALWYEAYAIEKELNAYRHN
notes: D domain, on phage
B24: SEQ ID NO: 624 (designed binder)
chain: MGSWHEFWQRLEAIEGRLWALGGSEAELADFESLIADFEEQLQEYKGKGNPEVEALMAEAEAIDNELRAYRHN
notes: D domain, on phage
B25: SEQ ID NO: 623 (designed binder)
chain: MGSWFEFETRLEAIDLRLWALGGSEAELATFEDVIAFFEDWLQFYKGKGNPEVEALKMEAWAIGEELHAYRHN
notes: D domain, on phage
B26: SEQ ID NO: 626 (designed binder)
chain: MGSWYEFENRLFAIEERLWALGGSEAELAWFEYEIANFEWGLQSYKGKGNPEVEALDNEAEAIDIELAAYRHN
notes: D domain, on phage
B27: SEQ ID NO: 603 (designed binder)
chain: MGSWVEFMDRLEAIEERLSALGGSEAELAFFEWEIAEFEEHLQVYKGKGNPEVEALEWEALAITEELAAYRHN
notes: D domain, on phage
B28: SEQ ID NO: 611 (designed binder)
chain: MGSWEEFEWRLDAIDERLWALGGSEAELATFEYEIAIFENELQQYKGKGNPEVEALDSEAYAIERELGAYRHN
notes: D domain, on phage
B29: SEQ ID NO: 620 (designed binder)
chain: MGSWNEFVIRLFAIDDRLYALGGSEAELAWFEDEIATFEYELQRYKGKGNPEVEALEYEAEAIVSELFAYRHN
notes: D domain, on phage
B30: SEQ ID NO: 610 (designed binder)
chain: MGSWDEFEFRLEAIDSRLWALGGSEAELAVFEYEIAQFEFMLQEYKGKGNPEVEALGMEAWAIENELFAYRHN
notes: D domain, on phage
B31: SEQ ID NO: 602 (designed binder)
chain: MGSWFEFNDRLDAISERLSALGGSEAELAYFEWQIAVFEKTLQNYKGKGNPEVEALTLEANAIFEELEAYRHN
notes: D domain, on phage
B32: SEQ ID NO: 617 (designed binder)
chain: MGSWDEFAMRLEAIQARLFALGGSEAELAIFEDEIAFFETMLQDYKGKGNPEVEALEYEAAAIEAELGAYRHN
notes: D domain, on phage
B33: SEQ ID NO: 621 (designed binder)
chain: MGSWYEFLARLYAIDERLWALGGSEAELATFEHWIADFEEQLQSYKGKGNPEVEALTDEAVAIGEELSAYRHN
notes: D domain, on phage
B34: SEQ ID NO: 605 (designed binder)
chain: MGSWEEFNWRLRAIDERLFALGGSEAELAWFEYDIAEFEEQLQVYKGKGNPEVEALRVEAAAIAEELYAYRHN
notes: D domain, on phage
B35: SEQ ID NO: 607 (designed binder)
chain: MGSWYEFEWRLDAIDRRLWALGGSEAELADFEEEIADFEWMLQNYKGKGNPEVEALVDEASAIQTELWAYRHN
notes: D domain, on phage
B36: SEQ ID NO: 625 (designed binder)
chain: MGSWYEFEQRLEAIEWRLGALGGSEAELATFEEDIADFEEWLQEYKGKGNPEVEALQYEAYAIAEELHAYRHN
notes: D domain, on phage
B37: SEQ ID NO: 609 (designed binder)
chain: MGSWWEFEDRLYAIDDRLWALGGSEAELAQFEREIAQFEIWLQEYKGKGNPEVEALDDEATAINSELFAYRHN
notes: D domain, on phage
B38: SEQ ID NO: 608 (designed binder)
chain: MGSWYEFVYRLRAIDERLDALGGSEAELAMFEFEIAFFEDQLQRYKGKGNPEVEALVDEAQAIDFELFAYRHN
notes: D domain, on phage
B39: SEQ ID NO: 613 (designed binder)
chain: MGSWYEFMGRLEAIDERLQALGGSEAELAWFEHEIAEFEWSLQWYKGKGNPEVEALRFEAGAIPWELWAYRHN
notes: D domain, on phage

Substitutions are numbered along the chain they refer to.

The first test deals with T1, AFP p26 (human, UniProt P02771 381-609).
T1 construct: The construct used is not described
T1 sequence: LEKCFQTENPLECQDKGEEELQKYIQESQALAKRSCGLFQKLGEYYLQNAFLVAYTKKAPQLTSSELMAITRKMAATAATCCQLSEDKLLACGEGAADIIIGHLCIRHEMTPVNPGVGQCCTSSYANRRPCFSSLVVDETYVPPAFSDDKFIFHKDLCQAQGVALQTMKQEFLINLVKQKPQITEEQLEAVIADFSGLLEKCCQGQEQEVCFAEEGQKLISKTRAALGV
In words: phage ELISA, A450 target/A450 IgG1-Fc. In short, it runs like this:
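Phage rescued with VCSM13 helper phage from phagemid colonies picked from panning output were tested on plates coated with goat anti-human IgG1-Fc antibody that carried either recombinant human target or IgG1-Fc. Bound phage were detected with HRP-conjugated anti-M13 antibody at 450 nm. The ELISA ratio is target absorbance over IgG1-Fc absorbance, averaged across all screened wells holding the clone.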
(In general: ELISA stands for enzyme-linked immunosorbent assay.)
For B1, the ELISA_avg worked out at 5.28 ratio.

For the molecule B2, the ELISA_avg was 17.9 ratio.

In the case of B3, the ELISA_avg stood at 21.4 ratio.

B4 gave an ELISA_avg of 18.6 ratio.

Take B5: the ELISA_avg was found to be 16.9 ratio.

In the case of B6, the ELISA_avg was determined as 13.2 ratio.

Molecule B7 gave an ELISA_avg of 19.2 ratio.

The molecule B8 had an ELISA_avg of 5.92 ratio.

On to B9, for which the ELISA_avg amounted to 9.4 ratio.

For the molecule B10, the ELISA_avg came out at 27.1 ratio.

The molecule B11 displayed an ELISA_avg of 18.4 ratio.

In turn, B12 showed an ELISA_avg of 28.3 ratio.

As to B13, the ELISA_avg amounted to 9.6 ratio.

Another test addresses T2, recombinant human CD123-Fc (human, UniProt P26951 19-305).
T2 construct: not shown: Fc part of CD123-Fc
T2 sequence: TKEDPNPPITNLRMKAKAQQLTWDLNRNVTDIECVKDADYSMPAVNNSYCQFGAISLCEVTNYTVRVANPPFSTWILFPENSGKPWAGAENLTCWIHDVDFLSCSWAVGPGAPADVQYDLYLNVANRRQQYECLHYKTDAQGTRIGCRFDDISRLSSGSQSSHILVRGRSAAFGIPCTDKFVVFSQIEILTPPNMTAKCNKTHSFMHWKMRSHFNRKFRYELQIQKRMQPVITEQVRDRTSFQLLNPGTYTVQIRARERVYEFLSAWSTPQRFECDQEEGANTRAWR
In words: phage ELISA, captured CD123-Fc. In short, it runs like this: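 Phage from BCMA panning colonies were rescued with VCSM13 helper phage and diluted 5× in blocking buffer. Plates coated with anti-human IgG1-Fc captured 5 nM target-Fc or IgG1-Fc, and binding was detected with HRP anti-M13. Ratio = A450 target/A450 IgG1-Fc, averaged over the clone's wells.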
As for B14, the ELISA_avg came to 3.1 ratio A450 target/IgG1-Fc.

Turning to B15, the ELISA_avg is 6.5 ratio A450 target/IgG1-Fc.

For the molecule B16, the ELISA_avg worked out at 4.5 ratio A450 target/IgG1-Fc.

With B17, the ELISA_avg came to 3.2 ratio A450 target/IgG1-Fc.

For B18, the ELISA_avg is 3.7 ratio A450 target/IgG1-Fc.

As for B19, the ELISA_avg was 3.9 ratio A450 target/IgG1-Fc.

Regarding B20, the ELISA_avg stood at 5.2 ratio A450 target/IgG1-Fc.

On to B21, for which the ELISA_avg was 4.6 ratio A450 target/IgG1-Fc.

In the case of B22, the ELISA_avg worked out at 5.1 ratio A450 target/IgG1-Fc.

Turning to B23, the ELISA_avg worked out at 3.4 ratio A450 target/IgG1-Fc.

On to B24, for which the ELISA_avg was found to be 7 ratio A450 target/IgG1-Fc.

Turning to B25, the ELISA_avg came to 6.6 ratio A450 target/IgG1-Fc.

Consider B26, for which the ELISA_avg was 3.3 ratio A450 target/IgG1-Fc.

For the molecule B27, the ELISA_avg was 4 ratio A450 target/IgG1-Fc.

Regarding B28, the ELISA_avg is 4.3 ratio A450 target/IgG1-Fc.

Consider B29, for which the ELISA_avg was found to be 3.5 ratio A450 target/IgG1-Fc.

In the case of B30, the ELISA_avg was 3.6 ratio A450 target/IgG1-Fc.

In the case of B31, the ELISA_avg was determined as 3.9 ratio A450 target/IgG1-Fc.

On to B32, for which the ELISA_avg was determined as 3.7 ratio A450 target/IgG1-Fc.

Turning to B33, the ELISA_avg amounted to 4.5 ratio A450 target/IgG1-Fc.

As to B34, the ELISA_avg stood at 5.4 ratio A450 target/IgG1-Fc.

Take B35: the ELISA_avg stood at 10 ratio A450 target/IgG1-Fc.

With B36, the ELISA_avg came out at 4.4 ratio A450 target/IgG1-Fc.

Turning to B37, the ELISA_avg was determined as 5.5 ratio A450 target/IgG1-Fc.

Turning to B38, the ELISA_avg amounted to 4.5 ratio A450 target/IgG1-Fc.

For the molecule B39, the ELISA_avg was 3.5 ratio A450 target/IgG1-Fc.

For the origin of these results see US20230125550A1 (ARCELLX, published 2023).
